Test results as given in US10358663B2, “Method of production of 2,4-dihydroxybutyric acid” (ADISSEO FRANCE S.A.S., priority 2010, dated 2019).
Numbering of substitutions follows the chain as printed. In names and notes the source's numbering stands.

Experiments:
[1] = substrate: N[C@@H](CC(=O)O)C(=O)O; assay: Aspartate kinase assay (ADP production coupled to NADH oxidation), His-tagged wild-type LysC; type: biochemical, Escherichia coli; conditions: other: His-tagged LysC, Eadie and Hofstee, pH 7.5, 30° C.
Protocol: Enzymatic assay: Aspartate or malate kinase activities were assayed by coupling ADP production in the kinase reactions to NADH oxidation in the presence of phosphoenolpyruvate, pyruvate kinase, and lactate dehydrogenase.
Aspartate (or Malate) Kinase aspartate (or malate)+ATP→4-phospho-(L)-aspartate (or 4-phospho-(L)-malate)+ADP
The assay mixture contained 50 mM Hepes (pH 7.5), 50 mM KCl, 5 mM MgCl2, 0.24 mM NADH, 0.96 mM ATP, 0.96 mM PEP, 9 μg/mL of lactate dehydrogenase (Sigma, L2500), 12.4 μg/mL pyruvate kinase (Sigma, P1506), and appropriate amounts of purified aspartate (malate) kinase. Reactions were started by adding 50 mM (L)-aspartate or (L)-malate. Enzymatic assays were carried out at 30° C. in 96-well flat bottomed microtiter plates in a final volume of 250 μL. The reactions were followed by the characteristic absorption of NADH at 340 nm in a microplate reader (BioRad 680XR).
Maximum activities for LysC and Hom3 on aspartate were 4.5 μmol/(min*mgprot) and 1.6 μmol/(min*mgprot), respectively. The Km value for aspartate was estimated with the method of Eadie and Hofstee by measuring initial reaction rates (v) at different substrate concentrations (c) and by extracting the slope of the v versus v/c plot. […]

[2] = substrate: O=CC[C@H](O)C(=O)O; assay: Malate semialdehyde dehydrogenase assay, Asd E241Q T136N; type: biochemical, Escherichia coli; conditions: other: malate semialdehyde, reverse biosynthetic direction, pH 9, 0.25 mM NADP, 30° C.
Protocol: (§1) Enzymatic assay: Aspartate or malate semialdehyde dehydrogenase activities were assayed in the reverse biosynthetic direction by following the reduction of NADP during the oxidation of aspartate or malate semialdehyde to 4-phospho-(L)-aspartate or 4-phospho-(L)-malate, respectively (Roberts et al., 2003). (L)-aspartate semialdehyde (or (L)-malate semialdehyde)+NADP+Pi→4-phospho-(L)-aspartate (or 4-phospho-(L)-malate)+NADPH
(§2) The assay mixture contained 200 mM Hepes (pH 9), 50 mM K2HPO4, 0.25 mM NADP. Reactions were started by adding (L)-aspartate semialdehyde or (L)-malate semialdehyde. (L)-Aspartate semialdehyde was added in the form of L-aspartic acid β-semialdehyde hydrate trifluoroacetate (maintained at pH3 to prevent degradation) which is a suitable substrate for enzymatic tests of homoserine dehydrogenase and aspartate semialdehyde dehysrogenase (Roberts et al., 2003). Unstable malate semialdehyde was produced freshly prior to the enzymatic tests by the deprotection of the stable malate semialdehyde derivative 2-[(4S)-2,2-dimethyl-5-oxo-1,3-dioxolan-4-yl]acetaldehyde (DMODA). […]
Enzymatic assays were carried out in 96-well flat bottomed microtiter plates in a final volume of 250 μL at 30° C. The reactions were followed by the characteristic absorption of NADPH at 340 nm in a microplate reader (BioRad 680XR). […]

[3] = substrate: O=CC[C@H](O)C(=O)O; assay: Malate semialdehyde dehydrogenase assay, Asd E241H; type: biochemical, Escherichia coli; conditions: other: malate semialdehyde, reverse biosynthetic direction, pH 9, 0.25 mM NADP, 30° C.
Protocol: as §1, §2
(§3) Enzymatic assays were carried out in 96-well flat bottomed microtiter plates in a final volume of 250 μL at 30° C. The reactions were followed by the characteristic absorption of NADPH at 340 nm in a microplate reader (BioRad 680XR).

[4] = substrate: O=CC[C@H](O)C(=O)O; assay: Malate semialdehyde dehydrogenase assay, Asd E241I; type: biochemical, Escherichia coli; conditions: other: malate semialdehyde, reverse biosynthetic direction, pH 9, 0.25 mM NADP, 30° C.
Protocol: as §1, §2, §3

[5] = substrate: O=CC[C@H](O)C(=O)O; assay: Malate semialdehyde dehydrogenase assay, Asd E241M; type: biochemical, Escherichia coli; conditions: other: malate semialdehyde, reverse biosynthetic direction, pH 9, 0.25 mM NADP, 30° C.
Protocol: as §1, §2, §3

[6] = substrate: O=CC[C@H](O)C(=O)O; assay: Malate semialdehyde dehydrogenase assay, Asd E241Q; type: biochemical, Escherichia coli; conditions: other: malate semialdehyde, reverse biosynthetic direction, pH 9, 0.25 mM NADP, 30° C.
Protocol: as §1, §2, §3

[7] = substrate: O=CC[C@H](O)C(=O)O; assay: Malate semialdehyde dehydrogenase assay, Asd E241A; type: biochemical, Escherichia coli; conditions: other: malate semialdehyde, reverse biosynthetic direction, pH 9, 0.25 mM NADP, 30° C.
Protocol: as §1, §2, §3

[8] = substrate: O=CC[C@H](O)C(=O)O; assay: Malate semialdehyde dehydrogenase assay, Asd E241C; type: biochemical, Escherichia coli; conditions: other: malate semialdehyde, reverse biosynthetic direction, pH 9, 0.25 mM NADP, 30° C.
Protocol: as §1, §2, §3

[9] = substrate: O=CC[C@H](O)C(=O)O; assay: Malate semialdehyde reductase assay, Ms-SSR N43H; type: biochemical, Metallosphaera sedula; conditions: other: malate semialdehyde, pH 7.5, 30° C.
Protocol: (§4) Test for Malate Semialdehyde Reductase Activity: Reaction: (L)-Malate semialdehyde+NAD(P)H→(L)-2,4-dihydroxybutyric acid+NAD(P)
(§5) The assay mixture contained 200 mM Hepes (pH 7.5), 50 mM KCl, 5 mM MgCl2, 0.24 mM NADH or NADPH, and appropriate amounts of purified enzyme. Reactions were started by adding 10 mM (L)-malate semialdehyde (malate semialdehyde was prepared freshly for each test, see Example 4). Enzymatic assays were carried out at 30° C. in 96-well flat bottomed microtiter plates in a final volume of 250 μL. The reactions were followed by the characteristic absorption of NAD(P)H at 340 nm in a microplate reader (BioRad 680XR).
(§6) Site-directed mutagenesis was carried out using the oligonucleotide pairs listed in Table 8 and the pMs-SSR plasmid as the template. Point mutations to change the amino acid sequences were introduced by PCR (Phusion 1U, HF buffer 20% (v/v), dNTPs 2.5 mM, direct and reverse primers 1 μM each, template plasmid 200 ng, water). When possible, plasmids created by PCR contained new restriction sites (introduced using silent mutations) in addition to the functional mutation to facilitate identification of mutated clones. The PCR products were digested by DpnI at 37° C. for 1 h to remove template DNA, and transformed into NEB 5-alpha competent E. coli cells (NEB). […]

[10] = substrate: O=CC[C@H](O)C(=O)O; assay: Malate semialdehyde reductase assay, Ms-SSR H39R N43H; type: biochemical, Metallosphaera sedula; conditions: other: malate semialdehyde, pH 7.5, 30° C.
Protocol: as §4, §5, §6

[11] = substrate: O=CC[C@H](O)C(=O)O; assay: Malate semialdehyde reductase assay, Ms-SSR wild type; type: biochemical, Metallosphaera sedula; conditions: other: malate semialdehyde, pH 7.5, 30° C.
Protocol: as §4, §5

[12] = substrate: O=CC[C@H](O)C(=O)O; assay: Malate semialdehyde reductase assay, Ms-SSR H39R; type: biochemical, Metallosphaera sedula; conditions: other: malate semialdehyde, pH 7.5, 30° C.
Protocol: as §4, §5, §6

B1: E. coli aspartate kinase III LysC, wild type, His-tagged, SEQ ID NO: 4 (Escherichia coli K-12) (protein)
chain: MSEIVVSKFGGTSVADFDAMNRSADIVLSDANVRLVVLSASAGITNLLVALAEGLEPGERFEKLDAIRNIQFAILERLRYPNVIREEIERLLENITVLAEAAALATSPALTDELVSHGELMSTLLFVEILRERDVQAQWFDVRKVMRTNDRFGRAEPDIAALAELAALQLLPRLNEGLVITQGFIGSENKGRTTTLGRGGSDYTAALLAEALHASRVDIWTDVPGIYTTDPRVVSAAKRIDEIAFAEAAEMATFGAKVLHPATLLPAVRSDIPVFVGSSKDPRAGGTLVCNKTENPPLFRALALRRNQTLLTLHSLNMLHSRGFLAEVFGILARHNISVDLITTSEVSVALTLDTTGSTSTGDTLLTQSLLMELSALCRVEVEEGLALVALIGNDLSKACGVGKEVFGVLEPFNIRMICYGASSHNLCFLVPGEDAEQVVQKLHSNLFE
Q: B1 was tested. Which Km [1] did it give?
A: Its Km is 600 µM.

B2: E. coli aspartate semialdehyde dehydrogenase Asd variant E241Q T136N, SEQ ID NO: 231 (Escherichia coli K-12; E241Q/T136N) (protein)
chain: MKNVGFIGWRGMVGSVLMQRMVEERDFDAIRPVFFSTSQLGQAAPSFGGTTGTLQDAFDLEALKALDIIVTCQGGDYTNEIYPKLRESGWQGYWIDAASSLRMKDDAIIILDPVNQDVITDGLNNGIRTFVGGNCNVSLMLMSLGGLFANDLVDWVSVATYQAASGGGARHMRELLTQMGHLYGHVADELATPSSAILDIERKVTTLTRSGELPVDNFGVPLAGSLIPWIDKQLDNGQSRQEWKGQAETNKILNTSSVIPVDGLCVRVGALRCHSQAFTIKLKKDVSIPTVEELLAAHNPWAKVVPNDREITMRELTPAAVTGTLTTPVGRLRKLNMGPEFLSAFTVGDQLLWGAAEPLRRMLRQLA
Q: How did the Km [2] turn out when B2 was run?
A: The Km was 250 µM.

B3: E. coli aspartate semialdehyde dehydrogenase Asd variant E241H, SEQ ID NO: 60 (Escherichia coli K-12; E241H) (protein)
chain: B2 chain with N136T, Q241H
Q: What does the source list for B3?
A: Km [3]: 800 µM; Vmax [3]: 0.10 µmol/mg/min

B4: E. coli aspartate semialdehyde dehydrogenase Asd variant E241I, SEQ ID NO: 62 (Escherichia coli K-12; E241I) (protein)
chain: B2 chain with N136T, Q241I
Q: Which results are given for B4?
A: Km [4]: 230 µM; Vmax [4]: 0.10 µmol/mg/min

B5: E. coli aspartate semialdehyde dehydrogenase Asd variant E241M, SEQ ID NO: 64 (Escherichia coli K-12; E241M) (protein)
chain: B2 chain with N136T, Q241M
Q: Which Km [5] does the source give for B5 here?
A: The Km was 430 µM.

Q: What about the Vmax [5] of the same protein?
A: The Vmax was 0.15 µmol/mg/min.

B6: E. coli aspartate semialdehyde dehydrogenase Asd variant E241Q, SEQ ID NO: 66 (Escherichia coli K-12; E241Q) (protein)
chain: B2 chain with N136T
Q: How did the Km [6] turn out when B6 was run?
A: The Km was 520 µM.

Q: And the Vmax [6]?
A: Its Vmax is 0.39 µmol/mg/min.

B7: E. coli aspartate semialdehyde dehydrogenase Asd variant E241A, SEQ ID NO: 54 (Escherichia coli K-12; E241A) (protein)
chain: B2 chain with N136T, Q241A
Q: With B7 as the protein, how does the Km [7] read?
A: The Km was 378 µM.

Q: What about the Vmax [7] of the same protein?
A: The Vmax was 0.09 µmol/mg/min.

B8: E. coli aspartate semialdehyde dehydrogenase Asd variant E241C, SEQ ID NO: 56 (Escherichia coli K-12; E241C) (protein)
chain: B2 chain with N136T, Q241C
Q: For B8, which Km [8] is on record?
A: Its Km is 500 µM.

Q: What about the Vmax [8] of the same protein?
A: Its Vmax is 0.18 µmol/mg/min.

B9: Metallosphaera sedula succinic semialdehyde reductase Ms-SSR variant N43H, SEQ ID NO: 227 (Metallosphaera sedula DSM 5348; N43H) (protein)
chain: MKAAVLHTYKEPLSIEDVNISQPKAGEVKIKVKATGLCHSDVHVFEGKTPVPPPVVAGHEISGIVEEVGPGVTRVKPGDRVISAFIHPCGKCGNCVAGKENLCETFSQVRLKGVMPDGTSRLSKDGKEIRTFLGGGFAEYAIVGENALTRVPEDMDLEKVAVLGCAGLTGYGAISSSKIEPGDTVAVIGVGGVGLSTIQLLRASGAGRIIAVGTKKWKLDRAMELGATDVVNSKEIDPVKAIKEITGGGPQVVIEAGGNEDTIHMALDSVRIGGKVVLVGLPPATAMIPIRVASIVRGGIEVVGNYGGRPRVDMPKLLELVRQGRYDPSRLVTGRFRLEEINEAVKMLEEGEAIRSLIIP
Q: For B9, which Km [9] is on record?
A: The Km was 2500 µM.

B10: Metallosphaera sedula succinic semialdehyde reductase Ms-SSR variant H39R N43H, SEQ ID NO: 81 (Metallosphaera sedula DSM 5348; H39R/N43H) (protein)
chain: B9 chain with H39R
Q: Which Km [10] does the source give for B10 here?
A: Its Km is 400 µM.

B11: Metallosphaera sedula succinic semialdehyde reductase Ms-SSR, wild type, SEQ ID NO: 76 (Metallosphaera sedula DSM 5348) (protein)
chain: B9 chain with H43N
Q: Which Km [11] does the source give for B11 here?
A: Its Km is 1100 µM.

B12: Metallosphaera sedula succinic semialdehyde reductase Ms-SSR variant H39R, SEQ ID NO: 225 (Metallosphaera sedula DSM 5348; H39R) (protein)
chain: B9 chain with H39R, H43N
Q: With B12 as the protein, how does the Km [12] read?
A: Its Km is 500 µM.
